The labels stand for the following.
B1: CE115HA000 H35N (antibody, name in Kabat numbering, V domains shown)
VH: QVQLVESGGGVVQPGRSLRLSCAASGFTFSNAWMNWVRQAPGKGLEWVAQIKAKSNNYATYYAESVKGRFTISRDDSKNSLYLQMNSLKTEDTAVYYCRYVHYGAYYGVDAWGQGTTVTVSS
VL: DIVMTQSPLSLPVTPGEPASISCRSSQSLVHSNRNTYLHWYQQKPGQAPRLLIYKVSNRFSGVPDRFSGSGSGTDFTLKISRVEAEDVGVYYCGQGTQVPYTFGQGTKLEIK
B2: CE115HA000 H35R (antibody, name in Kabat numbering, V domains shown)
VH: QVQLVESGGGVVQPGRSLRLSCAASGFTFSNAWMRWVRQAPGKGLEWVAQIKAKSNNYATYYAESVKGRFTISRDDSKNSLYLQMNSLKTEDTAVYYCRYVHYGAYYGVDAWGQGTTVTVSS
VL: DIVMTQSPLSLPVTPGEPASISCRSSQSLVHSNRNTYLHWYQQKPGQAPRLLIYKVSNRFSGVPDRFSGSGSGTDFTLKISRVEAEDVGVYYCGQGTQVPYTFGQGTKLEIK
B3: CE115HA000 H96K (antibody, name in Kabat numbering, V domains shown)
VH: QVQLVESGGGVVQPGRSLRLSCAASGFTFSNAWMHWVRQAPGKGLEWVAQIKAKSNNYATYYAESVKGRFTISRDDSKNSLYLQMNSLKTEDTAVYYCRYVKYGAYYGVDAWGQGTTVTVSS
VL: DIVMTQSPLSLPVTPGEPASISCRSSQSLVHSNRNTYLHWYQQKPGQAPRLLIYKVSNRFSGVPDRFSGSGSGTDFTLKISRVEAEDVGVYYCGQGTQVPYTFGQGTKLEIK
B4: CE115HA000 H96P (antibody, name in Kabat numbering, V domains shown)
VH: QVQLVESGGGVVQPGRSLRLSCAASGFTFSNAWMHWVRQAPGKGLEWVAQIKAKSNNYATYYAESVKGRFTISRDDSKNSLYLQMNSLKTEDTAVYYCRYVPYGAYYGVDAWGQGTTVTVSS
VL: DIVMTQSPLSLPVTPGEPASISCRSSQSLVHSNRNTYLHWYQQKPGQAPRLLIYKVSNRFSGVPDRFSGSGSGTDFTLKISRVEAEDVGVYYCGQGTQVPYTFGQGTKLEIK
B5: CE115HA000 H35W (antibody, name in Kabat numbering, V domains shown)
VH: QVQLVESGGGVVQPGRSLRLSCAASGFTFSNAWMWWVRQAPGKGLEWVAQIKAKSNNYATYYAESVKGRFTISRDDSKNSLYLQMNSLKTEDTAVYYCRYVHYGAYYGVDAWGQGTTVTVSS
VL: DIVMTQSPLSLPVTPGEPASISCRSSQSLVHSNRNTYLHWYQQKPGQAPRLLIYKVSNRFSGVPDRFSGSGSGTDFTLKISRVEAEDVGVYYCGQGTQVPYTFGQGTKLEIK
B6: CE115HA000 H35Q (antibody, name in Kabat numbering, V domains shown)
VH: QVQLVESGGGVVQPGRSLRLSCAASGFTFSNAWMQWVRQAPGKGLEWVAQIKAKSNNYATYYAESVKGRFTISRDDSKNSLYLQMNSLKTEDTAVYYCRYVHYGAYYGVDAWGQGTTVTVSS
VL: DIVMTQSPLSLPVTPGEPASISCRSSQSLVHSNRNTYLHWYQQKPGQAPRLLIYKVSNRFSGVPDRFSGSGSGTDFTLKISRVEAEDVGVYYCGQGTQVPYTFGQGTKLEIK
B7: CE115HA000 K52H (antibody, name in Kabat numbering, V domains shown)
VH: QVQLVESGGGVVQPGRSLRLSCAASGFTFSNAWMHWVRQAPGKGLEWVAQIHAKSNNYATYYAESVKGRFTISRDDSKNSLYLQMNSLKTEDTAVYYCRYVHYGAYYGVDAWGQGTTVTVSS
VL: DIVMTQSPLSLPVTPGEPASISCRSSQSLVHSNRNTYLHWYQQKPGQAPRLLIYKVSNRFSGVPDRFSGSGSGTDFTLKISRVEAEDVGVYYCGQGTQVPYTFGQGTKLEIK
B8: CE115HA000 H35Y (antibody, name in Kabat numbering, V domains shown)
VH: QVQLVESGGGVVQPGRSLRLSCAASGFTFSNAWMYWVRQAPGKGLEWVAQIKAKSNNYATYYAESVKGRFTISRDDSKNSLYLQMNSLKTEDTAVYYCRYVHYGAYYGVDAWGQGTTVTVSS
VL: DIVMTQSPLSLPVTPGEPASISCRSSQSLVHSNRNTYLHWYQQKPGQAPRLLIYKVSNRFSGVPDRFSGSGSGTDFTLKISRVEAEDVGVYYCGQGTQVPYTFGQGTKLEIK
B9: CE115HA000 H35V (antibody, name in Kabat numbering, V domains shown)
VH: QVQLVESGGGVVQPGRSLRLSCAASGFTFSNAWMVWVRQAPGKGLEWVAQIKAKSNNYATYYAESVKGRFTISRDDSKNSLYLQMNSLKTEDTAVYYCRYVHYGAYYGVDAWGQGTTVTVSS
VL: DIVMTQSPLSLPVTPGEPASISCRSSQSLVHSNRNTYLHWYQQKPGQAPRLLIYKVSNRFSGVPDRFSGSGSGTDFTLKISRVEAEDVGVYYCGQGTQVPYTFGQGTKLEIK
B10: CE115HA000 K43Q (antibody, name in Kabat numbering, V domains shown)
VH: QVQLVESGGGVVQPGRSLRLSCAASGFTFSNAWMHWVRQAPGQGLEWVAQIKAKSNNYATYYAESVKGRFTISRDDSKNSLYLQMNSLKTEDTAVYYCRYVHYGAYYGVDAWGQGTTVTVSS
VL: DIVMTQSPLSLPVTPGEPASISCRSSQSLVHSNRNTYLHWYQQKPGQAPRLLIYKVSNRFSGVPDRFSGSGSGTDFTLKISRVEAEDVGVYYCGQGTQVPYTFGQGTKLEIK
B11: CE115HA000 K52D (antibody, name in Kabat numbering, V domains shown)
VH: QVQLVESGGGVVQPGRSLRLSCAASGFTFSNAWMHWVRQAPGKGLEWVAQIDAKSNNYATYYAESVKGRFTISRDDSKNSLYLQMNSLKTEDTAVYYCRYVHYGAYYGVDAWGQGTTVTVSS
VL: DIVMTQSPLSLPVTPGEPASISCRSSQSLVHSNRNTYLHWYQQKPGQAPRLLIYKVSNRFSGVPDRFSGSGSGTDFTLKISRVEAEDVGVYYCGQGTQVPYTFGQGTKLEIK
B12: CE115HA000 H96Q (antibody, name in Kabat numbering, V domains shown)
VH: QVQLVESGGGVVQPGRSLRLSCAASGFTFSNAWMHWVRQAPGKGLEWVAQIKAKSNNYATYYAESVKGRFTISRDDSKNSLYLQMNSLKTEDTAVYYCRYVQYGAYYGVDAWGQGTTVTVSS
VL: DIVMTQSPLSLPVTPGEPASISCRSSQSLVHSNRNTYLHWYQQKPGQAPRLLIYKVSNRFSGVPDRFSGSGSGTDFTLKISRVEAEDVGVYYCGQGTQVPYTFGQGTKLEIK
B13: CE115HA000 H96Y (antibody, name in Kabat numbering, V domains shown)
VH: QVQLVESGGGVVQPGRSLRLSCAASGFTFSNAWMHWVRQAPGKGLEWVAQIKAKSNNYATYYAESVKGRFTISRDDSKNSLYLQMNSLKTEDTAVYYCRYVYYGAYYGVDAWGQGTTVTVSS
VL: DIVMTQSPLSLPVTPGEPASISCRSSQSLVHSNRNTYLHWYQQKPGQAPRLLIYKVSNRFSGVPDRFSGSGSGTDFTLKISRVEAEDVGVYYCGQGTQVPYTFGQGTKLEIK
B14: CE115HA000 H35T (antibody, name in Kabat numbering, V domains shown)
VH: QVQLVESGGGVVQPGRSLRLSCAASGFTFSNAWMTWVRQAPGKGLEWVAQIKAKSNNYATYYAESVKGRFTISRDDSKNSLYLQMNSLKTEDTAVYYCRYVHYGAYYGVDAWGQGTTVTVSS
VL: DIVMTQSPLSLPVTPGEPASISCRSSQSLVHSNRNTYLHWYQQKPGQAPRLLIYKVSNRFSGVPDRFSGSGSGTDFTLKISRVEAEDVGVYYCGQGTQVPYTFGQGTKLEIK
B15: CE115HA000 K52F (antibody, name in Kabat numbering, V domains shown)
VH: QVQLVESGGGVVQPGRSLRLSCAASGFTFSNAWMHWVRQAPGKGLEWVAQIFAKSNNYATYYAESVKGRFTISRDDSKNSLYLQMNSLKTEDTAVYYCRYVHYGAYYGVDAWGQGTTVTVSS
VL: DIVMTQSPLSLPVTPGEPASISCRSSQSLVHSNRNTYLHWYQQKPGQAPRLLIYKVSNRFSGVPDRFSGSGSGTDFTLKISRVEAEDVGVYYCGQGTQVPYTFGQGTKLEIK
B16: CE115HA000 H35S (antibody, name in Kabat numbering, V domains shown)
VH: QVQLVESGGGVVQPGRSLRLSCAASGFTFSNAWMSWVRQAPGKGLEWVAQIKAKSNNYATYYAESVKGRFTISRDDSKNSLYLQMNSLKTEDTAVYYCRYVHYGAYYGVDAWGQGTTVTVSS
VL: DIVMTQSPLSLPVTPGEPASISCRSSQSLVHSNRNTYLHWYQQKPGQAPRLLIYKVSNRFSGVPDRFSGSGSGTDFTLKISRVEAEDVGVYYCGQGTQVPYTFGQGTKLEIK
B17: CE115HA000 K52E (antibody, name in Kabat numbering, V domains shown)
VH: QVQLVESGGGVVQPGRSLRLSCAASGFTFSNAWMHWVRQAPGKGLEWVAQIEAKSNNYATYYAESVKGRFTISRDDSKNSLYLQMNSLKTEDTAVYYCRYVHYGAYYGVDAWGQGTTVTVSS
VL: DIVMTQSPLSLPVTPGEPASISCRSSQSLVHSNRNTYLHWYQQKPGQAPRLLIYKVSNRFSGVPDRFSGSGSGTDFTLKISRVEAEDVGVYYCGQGTQVPYTFGQGTKLEIK
B18: CE115HA000 K43E (antibody, name in Kabat numbering, V domains shown)
VH: QVQLVESGGGVVQPGRSLRLSCAASGFTFSNAWMHWVRQAPGEGLEWVAQIKAKSNNYATYYAESVKGRFTISRDDSKNSLYLQMNSLKTEDTAVYYCRYVHYGAYYGVDAWGQGTTVTVSS
VL: DIVMTQSPLSLPVTPGEPASISCRSSQSLVHSNRNTYLHWYQQKPGQAPRLLIYKVSNRFSGVPDRFSGSGSGTDFTLKISRVEAEDVGVYYCGQGTQVPYTFGQGTKLEIK
B19: CE115HA000 I51E (antibody, name in Kabat numbering, V domains shown)
VH: QVQLVESGGGVVQPGRSLRLSCAASGFTFSNAWMHWVRQAPGKGLEWVAQEKAKSNNYATYYAESVKGRFTISRDDSKNSLYLQMNSLKTEDTAVYYCRYVHYGAYYGVDAWGQGTTVTVSS
VL: DIVMTQSPLSLPVTPGEPASISCRSSQSLVHSNRNTYLHWYQQKPGQAPRLLIYKVSNRFSGVPDRFSGSGSGTDFTLKISRVEAEDVGVYYCGQGTQVPYTFGQGTKLEIK
B20: CE115HA000 I51D (antibody, name in Kabat numbering, V domains shown)
VH: QVQLVESGGGVVQPGRSLRLSCAASGFTFSNAWMHWVRQAPGKGLEWVAQDKAKSNNYATYYAESVKGRFTISRDDSKNSLYLQMNSLKTEDTAVYYCRYVHYGAYYGVDAWGQGTTVTVSS
VL: DIVMTQSPLSLPVTPGEPASISCRSSQSLVHSNRNTYLHWYQQKPGQAPRLLIYKVSNRFSGVPDRFSGSGSGTDFTLKISRVEAEDVGVYYCGQGTQVPYTFGQGTKLEIK

This experiment deals with T1, CD3ε homodimer protein (human, UniProt P07766 23-126, limits assumed, sulfo-tag or biotin label in some ECL assays).
T1 construct: also called human CD3ε homodimer protein; CD3 (CD3ε)
T1 sequence (P07766 23-126 limits assumed): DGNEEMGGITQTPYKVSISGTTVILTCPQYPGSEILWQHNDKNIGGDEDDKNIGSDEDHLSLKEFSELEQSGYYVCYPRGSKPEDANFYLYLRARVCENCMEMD
The experiment is described as follows: SPR, CD3ε homodimer on chip.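 Note: biacore SPR with antibody variants flowed as analyte over amine-coupled CD3ε homodimer on a CM chip, bound amount of each single-residue H chain variant over that of parent.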
Regarding B1, the “ratio of amounts bound vs CE115HA000” value was found to be 0.35.

Turning to B2, the “ratio of amounts bound vs CE115HA000” value stood at 0.14. Consider B3, for which the “ratio of amounts bound vs CE115HA000” value turned out to be 0.35. As for B4, the figure is 0.12; as for B5, 0.22. Regarding B6, the “ratio of amounts bound vs CE115HA000” value was found to be 0.13.

Consider B7, for which the “ratio of amounts bound vs CE115HA000” value worked out at 0.22. For B8 the value was 0.16; for B9, 0.22; for B10, 0.99.

Consider B11, for which the “ratio of amounts bound vs CE115HA000” value turned out to be 0.25.

As for B12, the “ratio of amounts bound vs CE115HA000” value came out at 0.42. For B13 the value was 0.17; for B14, 0.26. As for B15, the “ratio of amounts bound vs CE115HA000” value was found to be 0.17. As for B16, the “ratio of amounts bound vs CE115HA000” value was determined as 0.23. Turning to B17, the “ratio of amounts bound vs CE115HA000” value is 0.26. In the case of B18, the “ratio of amounts bound vs CE115HA000” value came to 0.9. As for B19, the “ratio of amounts bound vs CE115HA000” value is 0.55. As for B20, the figure is 0.29.

The record behind these values is patent US20220040297A1 (Chugai, published 2022).
